In the experiment the target is T1, MinD-N45A (purified) (E. coli, UniProt P0AEZ3 1-270, N45A).
T1 sequence (looked up): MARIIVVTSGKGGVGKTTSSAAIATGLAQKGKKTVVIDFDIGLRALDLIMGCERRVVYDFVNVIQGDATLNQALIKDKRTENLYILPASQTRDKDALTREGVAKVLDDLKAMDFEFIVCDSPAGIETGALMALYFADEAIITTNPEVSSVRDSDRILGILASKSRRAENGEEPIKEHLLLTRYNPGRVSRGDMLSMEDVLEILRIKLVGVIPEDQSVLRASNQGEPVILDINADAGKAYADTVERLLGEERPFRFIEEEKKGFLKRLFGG
In words: co-sedimentation.

B1: MalE-MinC (natural protein, E. coli, UniProt P18196 1-231, looked up)
chain: MSNTPIELKGSSFTLSVVHLHEAEPKVIHQALEDKIAQAPAFLKHAPVVLNVSALEDPVNWSAMHKAVSATGLRVIGVSGCKDAQLKAEIEKMGLPILTEGKEKAPRPAPTPQAPAQNTTPVTKTRLIDTPVRSGQRIYAPQCDLIVTSHVSAGAELIADGNIHVYGMMRGRALAGASGDRETQIFCTNLMAELVSIAGEYWLSDQIPAEFYGKAARLQLVENALTVQPLN
As for B1, the binding result is “binds”.

B2: MinE-his (purified) (natural protein, E. coli, UniProt P0A734 1-88, looked up)
chain: MALLDFFLSRKKNTANIAKERLQIIVAERRRSDAEPHYLPQLRKDILEVICKYVQIDPEMVTVQLEQKDGDISILELNVTLPEAEELK
Take B2: the binding result is recorded as “binds”.

Source of the values: PMC3376909 (Molecular Microbiology, 2012).
